Paper doi:10.1101/2022.07.22.501140
Where two headings read alike, the source gives them in different places.

Columns and labels:
Experiment in all cases: fluorescence polarization
XlBicc1 N-term (KH1-KH3) [1] = target: T1, XlBicc1 N-term (KH1-KH3) (Xenopus laevis, UniProt A0A1L8FE49 1-506)
DmBicc1 N-term [2] = target: T2, DmBicc1 N-term (Drosophila melanogaster, UniProt Q24009 1-506)
T2 sequence: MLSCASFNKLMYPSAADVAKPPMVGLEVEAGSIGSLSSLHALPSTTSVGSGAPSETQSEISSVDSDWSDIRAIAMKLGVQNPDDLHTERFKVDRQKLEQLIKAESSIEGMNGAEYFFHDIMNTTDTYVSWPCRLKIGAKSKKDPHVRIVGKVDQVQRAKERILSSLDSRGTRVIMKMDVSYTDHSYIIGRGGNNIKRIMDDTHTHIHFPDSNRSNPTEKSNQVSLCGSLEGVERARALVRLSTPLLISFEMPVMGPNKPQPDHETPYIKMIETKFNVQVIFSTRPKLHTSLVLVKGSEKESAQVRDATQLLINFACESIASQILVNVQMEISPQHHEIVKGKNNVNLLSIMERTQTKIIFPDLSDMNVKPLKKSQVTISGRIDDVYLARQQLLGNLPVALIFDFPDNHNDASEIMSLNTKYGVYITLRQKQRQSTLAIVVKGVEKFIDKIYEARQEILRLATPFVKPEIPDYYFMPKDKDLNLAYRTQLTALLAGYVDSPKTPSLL

HsBicc1 N-term [3] = target: T3, HsBicc1 N-term (human, UniProt Q9H694 1-506)
T3 sequence (Q9H694 1-506): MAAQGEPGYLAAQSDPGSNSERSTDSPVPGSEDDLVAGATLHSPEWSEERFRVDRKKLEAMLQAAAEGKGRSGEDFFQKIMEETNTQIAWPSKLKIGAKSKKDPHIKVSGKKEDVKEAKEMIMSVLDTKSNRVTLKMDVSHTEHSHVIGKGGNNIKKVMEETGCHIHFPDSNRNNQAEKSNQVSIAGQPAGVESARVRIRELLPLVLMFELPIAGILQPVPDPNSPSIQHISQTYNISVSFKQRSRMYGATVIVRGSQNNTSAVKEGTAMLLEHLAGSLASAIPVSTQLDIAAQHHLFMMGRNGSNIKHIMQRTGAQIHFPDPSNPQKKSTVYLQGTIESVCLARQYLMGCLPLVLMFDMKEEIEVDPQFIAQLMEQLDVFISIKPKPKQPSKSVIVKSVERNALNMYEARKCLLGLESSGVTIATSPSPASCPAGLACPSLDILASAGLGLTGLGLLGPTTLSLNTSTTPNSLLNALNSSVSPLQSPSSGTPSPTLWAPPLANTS

XlKH1-DmBicc1KH2-KH3 [4] = target: T4, XlKH1-DmBicc1KH2-KH3 (Xenopus laevis / Drosophila …, UniProt A0A1L8FE49 1-134+Q24009:179-506, internal_change)
HsBicc1 N-term [5] = target: T3, HsBicc1 N-term; remark: listed apart in the source
DmBicc1 N-term [6] = target: T2, DmBicc1 N-term; remark: listed apart in the source
HsBicc1 N-term [7] = target: T3, HsBicc1 N-term; remark: listed apart in the source
XlKH1-DmBicc1KH2-KH3 [8] = target: T4, XlKH1-DmBicc1KH2-KH3; remark: listed apart in the source
XlBicc1 N-term (KH1-KH3) [9] = target: T1, XlBicc1 N-term (KH1-KH3); remark: listed apart in the source
XlBicc1 N-term (KH1-KH3) [10] = target: T1, XlBicc1 N-term (KH1-KH3); remark: listed apart in the source

B1: Cripto-1 leader variant (structured_RNA)
RNA: CGACUCUAGAAGGUUGUACAUUAACAGCUCC
Q: What does the source list for B1?
A: binding result (XlBicc1 N-term (KH1-KH3) [1]): no binding; binding result (DmBicc1 N-term [2]): no binding; binding result (HsBicc1 N-term [3]): no binding

B2: XlCripto-1 wild-type RNA site (structured_RNA)
RNA: CUUAUUAGACACGUUGUACAUUAACAGCUCC
Q: Which Kd (XlBicc1 N-term (KH1-KH3) [1]) does the source give for B2 here?
A: Its Kd is 34 nM.

Q: What about the Kd (DmBicc1 N-term [2]) of the same binder?
A: Its Kd is 93 nM.

Q: And the Kd (XlKH1-DmBicc1KH2-KH3 [4])?
A: The Kd was 89 nM.

Q: Does B2 bind (HsBicc1 N-term [5])?
A: Result: binds

B3: Cripto-1 loop variant (structured_RNA)
RNA: CUUAUUAGACACGUUGUCGCGAAACAGCUCC
Q: How did the binding signal (DmBicc1 N-term [6]) turn out when B3 was run?
A: The binding signal was 3.2 fold reduction vs wild-type RNA.

Q: And the binding signal (HsBicc1 N-term [7])?
A: The binding signal was 15 fold reduction vs wild-type RNA.

Q: Does B3 bind (XlKH1-DmBicc1KH2-KH3 [8])?
A: Result: no binding

Q: And the Kd (XlBicc1 N-term (KH1-KH3) [9])?
A: Its Kd is ~12000 nM.

B4: Cyclin B1 negative control RNA (ssRNA)
RNA: CGACUCUAGAAGGACUACGUGGCAUUCCAAUU
Q: Does B4 bind (XlBicc1 N-term (KH1-KH3) [10])?
A: Result: no binding
